Measurements: patent US20240247042A1, “GLUCAGON LIKE PEPTIDE COMPOUNDS” (Novartis AG, priority 2021, published 2024)
Values belong to the molecule of their own block, whether it stands above or below them.

Legend:
[1] = target: cynomolgus GLP1 receptor (cynoGLP1R), on HEK293-cynoGLP1R F6 cells (cynomolgus) (UniProt F8V479); experiment: cell-based or functional assay
[2] = target: T1, mouse GLP1 receptor (mGLP1R) (Mus musculus, UniProt O35659); experiment: Mouse GLP1R cAMP agonist assay; type: cell-based; conditions: percent of GLP1(7-36) EC100
T1 construct: host or cells: HEK293T CRE-Luc (called HEK293), clone C3
T1 sequence (O35659 22-463): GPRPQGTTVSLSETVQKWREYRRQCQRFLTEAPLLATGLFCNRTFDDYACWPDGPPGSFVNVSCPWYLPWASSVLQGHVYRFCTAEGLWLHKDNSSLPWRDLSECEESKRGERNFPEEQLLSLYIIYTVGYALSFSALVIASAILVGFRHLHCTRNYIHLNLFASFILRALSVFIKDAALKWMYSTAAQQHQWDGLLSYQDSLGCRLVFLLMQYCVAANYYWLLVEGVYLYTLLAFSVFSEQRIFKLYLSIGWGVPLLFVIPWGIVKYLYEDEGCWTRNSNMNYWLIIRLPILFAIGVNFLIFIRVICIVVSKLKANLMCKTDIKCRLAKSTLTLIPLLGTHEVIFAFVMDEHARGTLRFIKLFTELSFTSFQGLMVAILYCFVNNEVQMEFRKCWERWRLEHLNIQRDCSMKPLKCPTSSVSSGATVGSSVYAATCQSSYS
Procedure: Compounds described herein were tested in the following cellular assays that measures the intracellular cAMP concentration. The cAMP is generated by the activation of GLP1R. EC50 is defined as the concentration of the compound that leads to half of the maximum response (after baseline correction).
The following day, cells were transfected as follows. The DNA complex was prepared as 0.020 μg/μL by adding 37 μg of plasmid DNA encoding mouse GLP1R cDNA (GeneCopoeia, cat #EX-Mm23901-M67; NCBI Reference Sequence: NM_021332.2) in 1758 μL Opti-MEM solution. Then, 112 μL of FuGENE® HD reagent were added to that by mixing carefully. After 5-10 min incubation at RT, 850 μL of DNA complex per well were added to the cells, and mixed thoroughly.

[3] = Tolerability assessment: emesis and FI in obese monkeys; type: in vivo; conditions: single dose s.c. 30 μg/kg
Source text: Efficacy was defined as a reduction in FI and BW. Tolerability, assessed as reduced and/or absence of emesis and retained interest in a selection of fruits and vegetables and peanuts as treats.

[4] = Efficacy study: body weight loss in DIO mice; type: in vivo, C57BL/6 mice; conditions: s.c., 120 μg/kg QD, Day 30
Procedure: Males 24-30 weeks of age were used in the studies (n=7/group). Animals were housed one per cage in a normal light cycle room, under an approved IACUC protocol. […] Compound(s) or vehicle were given QD or when indicated 03D (every 3 days). […] Body weight and food intake were measured daily.

[5] = Acute food intake study in DIO mice; type: in vivo, C57BL/6 mice; conditions: single s.c., 120 μg/kg
Procedure: Males 24-30 weeks of age were used in the studies. Animals were housed one per cage in a normal light cycle (6:00 am-6:00 pm lights on, otherwise lights off) room, under an approved IACUC protocol. […] At the start of the study, food weight was recorded and animals were subcutaneously dosed with a test compound.

human GLP1R [6] = target: T2, human GLP1R (Homo sapiens, UniProt P43220); experiment: Human GLP1R DERET recycling assay; type: cell-based
human GLP1R [7] = target: T2, human GLP1R; experiment: Human GLP1R DERET internalization assay; type: cell-based
[8] = target: T3, human GLP1 receptor (hGLP1R) fused with a SNAP tag, on HEK293-SNAP-hGLP1R-GloSensor cells (human, UniProt P43220 24-463); experiment: cell-based or functional assay
[9] = target: human GLP1R (hGLP1R) with a Prolink tag, on CHO-hGLP1R-β-arrestin cells (human, UniProt P43220 24-463); experiment: cell-based or functional assay
[10] = target: T4, mouse GLP1 receptor (mGLP1R), on HEK293-mGLP1R CRE-Luc (Clone C3) cells (mouse, UniProt O35659 22-463); experiment: cell-based or functional assay
T4 sequence (looked up): T1 sequence (O35659 22-463)

[11] = target: T3, human GLP1 receptor (hGLP1R) fused with …; experiment: cell-based or functional assay; remark: listed apart in the source
[12] = target: T3, human GLP1 receptor (hGLP1R) fused with …; experiment: cell-based or functional assay; remark: listed apart in the source
[13] = target: cynomolgus GLP1 receptor (cynoGLP1R), on HEK293-cynoGLP1R F6 cells (cynomolgus, UniProt F8V479 24-463); experiment: cell-based or functional assay

T2 sequence (P43220 24-463): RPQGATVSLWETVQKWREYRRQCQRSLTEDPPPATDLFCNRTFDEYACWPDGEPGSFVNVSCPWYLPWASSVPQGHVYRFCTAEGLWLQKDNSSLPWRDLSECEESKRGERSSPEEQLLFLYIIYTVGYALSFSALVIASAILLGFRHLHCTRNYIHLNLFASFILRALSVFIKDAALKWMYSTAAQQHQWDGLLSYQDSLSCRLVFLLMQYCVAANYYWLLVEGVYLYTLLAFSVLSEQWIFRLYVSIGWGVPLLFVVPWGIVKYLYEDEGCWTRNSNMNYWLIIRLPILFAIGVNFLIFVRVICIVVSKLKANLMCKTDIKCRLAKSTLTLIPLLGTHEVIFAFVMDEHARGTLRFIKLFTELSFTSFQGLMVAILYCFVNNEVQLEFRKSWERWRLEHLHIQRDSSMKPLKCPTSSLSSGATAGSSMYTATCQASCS

Molecule: semaglutide
- Emax mean [2]: 106%
- FI reduction observed [3]: Yes
- Weight loss [4]: −17.8 ± 1.2 % baseline
- FI @ 24 h [5]: −86 ± 1 % baseline
- Receptor recycled mean (human GLP1R [6]): 64%
- T1/2 mean (human GLP1R [6]): 1.677 h
- Emax mean (human GLP1R [7]): 91%

B3: Compound 3: Diastereomer 2 (peptide)
peptide: HXEGTFTSDVSSYLEGQAAKEFIAWLVRGRG
modifications: Aib at position 8 (GLP-1 numbering); side-chain NH of the Lys residue acylated, via a PEG24 linker, with (R)-2-undecyltridecanedioic acid (from NHS ester Intermediate 15B, R-enantiomer)
- receptor internalization (DERET): EC50 mean [11]: 372 nM

B4: Compound 5 (peptide)
peptide: B3 peptide
modifications: Aib at position 8 (GLP-1 numbering); side-chain NH of the Lys residue acylated, via a PEG2 linker, with 2-undecyltridecanedioic acid (from NHS ester Intermediate 22)
- receptor recycling (DERET, after Exendin 9-39): T1/2 mean [12]: 2.25 h
- cynoGLP1R cAMP assay (HTRF): EC50 mean [13]: 0.577 nM
- cynoGLP1R cAMP assay (HTRF): Emax mean, % of GLP1(7-36) [13]: 103%

B7: Compound 2: Diastereomer 1 (peptide)
peptide: B3 peptide
modifications: Aib at position 8 (GLP-1 numbering); side-chain NH of the Lys residue acylated, via a PEG24 linker, with (S)-2-undecyltridecanedioic acid (from NHS ester Intermediate 15A, S-enantiomer)
- β-arrestin recruitment (PathHunter): EC50 mean [9]: 133 nM
- receptor internalization (DERET): EC50 mean [11]: 331 nM

B8: Compound 1 (Diastereomeric Mixture) (peptide)
peptide: B3 peptide
modifications: Aib at position 8 (GLP-1 numbering); side-chain NH of the Lys residue acylated, via a PEG24 linker, with 2-undecyltridecanedioic acid (from NHS ester Intermediate 6); diastereomeric mixture at the quaternary carbon of the fatty acid
- hGLP1R cAMP assay (GloSensor): Emax mean, % of GLP1(7-36) [8]: 105%
- β-arrestin recruitment (PathHunter): EC50 mean [9]: 192 nM

B9: Compound 4 (peptide)
peptide: B3 peptide
modifications: Aib at position 8 (GLP-1 numbering); side-chain NH of the Lys residue acylated, via a PEG8 linker, with 2-undecyltridecanedioic acid (from NHS ester Intermediate 19)
- β-arrestin recruitment (PathHunter): EC50 mean [9]: 235 nM
- mGLP1R cAMP assay (HTRF): EC50 mean [10]: 0.428 nM

Next, values leading:

- cynoGLP1R cAMP assay (HTRF): EC50 mean [1]: 0.0217 nM
- cynoGLP1R cAMP assay (HTRF): Emax mean, % of GLP1(7-36) [1]: 100%
Molecule: GLP1(7-36) peptide (from UniProt P01275 98-127) (ligand)

- cynoGLP1R cAMP assay (HTRF): EC50 mean [1]: 0.0491 nM
Molecule: semaglutide acetate salt (peptide)

- hGLP1R cAMP assay (GloSensor): EC50 mean [8]: 0.00573 nM
- β-arrestin recruitment (PathHunter): EC50 mean [9]: 70 nM
- mGLP1R cAMP assay (HTRF): EC50 mean [10]: 0.034 nM
B1: Compound 6 (peptide)
peptide: B3 peptide
modifications: Aib at position 8 (GLP-1 numbering); side-chain NH of the Lys residue acylated, via a PEG24 linker, with the 11-carbamoyl-henicosane-1,11,21-tricarboxylic acid moiety (from NHS ester Intermediate 29)

- hGLP1R cAMP assay (GloSensor): EC50 mean [8]: 0.105 nM
B2: Compound 8 (peptide)
peptide: B3 peptide
modifications: Aib at position 8 (GLP-1 numbering); side-chain NH of the Lys residue acylated, via a PEG24 linker, with the 14-carbamoyl-heptacosane-1,14,27-tricarboxylic acid moiety (from NHS ester Intermediate 43)

- β-arrestin recruitment (PathHunter): EC50 mean [9]: > 2000 nM
- β-arrestin recruitment (PathHunter): Emax mean, % of GLP1(7-36) [9]: 37%
- mGLP1R cAMP assay (HTRF): EC50 mean [10]: 0.686 nM
- receptor internalization (DERET): Emax mean, % of GLP1(7-36) [11]: 22%
B5: Compound 9 (peptide)
peptide: B3 peptide
modifications: Aib at position 8 (GLP-1 numbering); side-chain NH of the Lys residue acylated, via a PEG24 linker, with the 15-carbamoyl-nonacosane-1,15,29-tricarboxylic acid moiety (from NHS ester Intermediate 50)

- β-arrestin recruitment (PathHunter): EC50 mean [9]: 178 nM
- receptor internalization (DERET): EC50 mean [11]: 367 nM
B6: Compound 7 (peptide)
peptide: B3 peptide
modifications: Aib at position 8 (GLP-1 numbering); side-chain NH of the Lys residue acylated, via a PEG24 linker, with the 12-carbamoyl-tricosane-1,12,23-tricarboxylic acid moiety (from NHS ester Intermediate 36)
